{"source": "paper PMC5940917", "key": {"[1]": {"molecular_target": "rat ASIC1a/2a heteromeric channel stably expressed in CHO cells (rat) (UniProt P55926)", "sequence (P55926 whole entry, chain 1 of 2)": "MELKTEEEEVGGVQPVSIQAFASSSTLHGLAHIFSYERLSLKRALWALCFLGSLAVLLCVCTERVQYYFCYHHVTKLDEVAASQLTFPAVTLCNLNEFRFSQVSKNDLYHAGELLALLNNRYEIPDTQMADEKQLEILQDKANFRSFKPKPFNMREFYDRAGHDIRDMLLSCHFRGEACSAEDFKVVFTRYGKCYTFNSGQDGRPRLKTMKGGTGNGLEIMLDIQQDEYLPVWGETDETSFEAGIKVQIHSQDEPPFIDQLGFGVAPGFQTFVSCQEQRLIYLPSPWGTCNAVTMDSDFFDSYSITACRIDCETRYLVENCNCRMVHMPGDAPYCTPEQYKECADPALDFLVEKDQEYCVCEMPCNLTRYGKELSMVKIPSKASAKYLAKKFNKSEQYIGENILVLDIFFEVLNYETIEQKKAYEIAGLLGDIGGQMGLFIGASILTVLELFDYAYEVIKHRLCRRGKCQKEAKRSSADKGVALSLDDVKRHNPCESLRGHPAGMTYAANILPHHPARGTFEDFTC", "sequence (P55926 other isoform, or with tags, fused parts or gaps, chain 2 of 2)": "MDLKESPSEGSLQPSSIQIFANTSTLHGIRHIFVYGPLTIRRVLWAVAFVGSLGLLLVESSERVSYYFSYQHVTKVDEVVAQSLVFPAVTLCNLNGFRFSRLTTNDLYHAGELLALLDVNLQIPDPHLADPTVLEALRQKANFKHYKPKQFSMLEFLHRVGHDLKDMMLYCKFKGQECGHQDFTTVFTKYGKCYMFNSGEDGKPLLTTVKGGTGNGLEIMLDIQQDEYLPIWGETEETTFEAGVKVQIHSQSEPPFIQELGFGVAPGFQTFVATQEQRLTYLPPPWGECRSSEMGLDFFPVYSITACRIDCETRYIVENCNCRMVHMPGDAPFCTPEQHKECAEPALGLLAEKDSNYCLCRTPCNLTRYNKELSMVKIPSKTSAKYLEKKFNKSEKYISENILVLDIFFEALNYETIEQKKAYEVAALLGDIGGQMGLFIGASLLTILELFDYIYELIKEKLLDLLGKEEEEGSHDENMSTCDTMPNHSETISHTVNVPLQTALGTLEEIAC"}, "[2]": {"molecular_target": "rat ASIC1a/2a heteromeric channel stably expressed in CHO cells (rat) (UniProt P55926)", "remark": "listed apart in the source"}, "[3]": {"molecular_target": "rat ASIC1a/2a heteromeric channel stably expressed in CHO cells (rat) (UniProt P55926)", "remark": "listed apart in the source"}}}
{"substance": "Psalmotoxin (PcTx1) (from UniProt P60514 1-40) (peptide)", "values": [{"measurement": "current clamp on CHO cells: potentiation of pH6.8-induced membrane depolarization at conditioning pH 7.4, 1-300 nM PcTx1", "setting": "[1]", "result": 56.1, "unit": "nM"}, {"measurement": "whole-cell patch clamp on CHO cells: potentiation of pH6.8-induced current at conditioning pH 7.4, 1-300 nM PcTx1", "setting": "[1]", "result": 124, "unit": "nM"}, {"measurement": "threshold concentration of PcTx1 for potentiation of pH6.8-induced responses at conditioning pH 7.4 (wash-off experiments; CHO cells, rat and mouse cortical neurons)", "setting": "[2]", "result": "< 10", "unit": "nM"}, {"measurement": "whole-cell patch clamp on CHO cells: inhibition of pH6.0-induced current at conditioning pH 7.0, 1-300 nM PcTx1 (inhibition incomplete, plateau ~75%)", "setting": "[3]", "result": 2.9, "unit": "nM"}]}
